Measurements taken from patent publication US20050123978.

Target: T1, recombinant ANX7 (human annexin VII) (UniProt P20073)
T1 sequence: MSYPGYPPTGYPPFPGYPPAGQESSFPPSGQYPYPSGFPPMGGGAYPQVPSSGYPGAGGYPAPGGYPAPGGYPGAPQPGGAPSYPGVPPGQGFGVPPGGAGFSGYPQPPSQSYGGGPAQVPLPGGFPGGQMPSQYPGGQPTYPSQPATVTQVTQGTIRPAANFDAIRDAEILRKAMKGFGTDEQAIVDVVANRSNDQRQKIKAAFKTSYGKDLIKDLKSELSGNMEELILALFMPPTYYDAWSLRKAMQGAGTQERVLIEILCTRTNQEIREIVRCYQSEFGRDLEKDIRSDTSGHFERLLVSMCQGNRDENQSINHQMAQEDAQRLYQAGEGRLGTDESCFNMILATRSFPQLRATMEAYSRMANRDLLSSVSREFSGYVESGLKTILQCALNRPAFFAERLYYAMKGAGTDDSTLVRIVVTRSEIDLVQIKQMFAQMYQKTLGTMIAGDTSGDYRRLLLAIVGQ

Q: Ca^2+/calmodulin Kinase II was tested. Which “in vitro phosphorylation of recombinant ANX7” value (shortened to “in vitro phosphorylation”) did it give?
A: no activity was detected when recombinant ANX7 was exposed to casein kinase 1, casein kinase II, or Ca^2+/calmodulin kinase II

Q: For Casein kinase I, which “in vitro phosphorylation” value is on record?
A: no activity was detected when recombinant ANX7 was exposed to casein kinase 1, casein kinase II, or Ca^2+/calmodulin kinase II

Q: Which “molar ratio of ^32[P]/ANX7 protein after a 30-minute incubation” value (from here on “molar ratio of ^32[P]/ANX7 protein”) does the source give for cAMP-dependent protein Kinase here?
A: PKA (molar ratio=1.0)

Q: With cGMP-dependent protein kinase as the substance, how does the “molar ratio of ^32[P]/ANX7 protein” value read?
A: PKG (molar ratio=1.0)

Q: Which “in vitro phosphorylation” value does the source give for casein Kinase II here?
A: no activity was detected when recombinant ANX7 was exposed to casein kinase 1, casein kinase II, or Ca^2+/calmodulin kinase II

Q: epidermal growth factor receptor kinase was tested. Which “molar ratio of ^32[P]/ANX7 protein” value did it give?
A: only five were active ... EGFR kinase (molar ratio not determined)

Q: With protein kinase C as the substance, how does the “molar ratio of ^32[P]/ANX7 protein” value read?
A: PKC (molar ratio=2.0)

Q: How did the “molar ratio of ^32[P]/ANX7 protein” value turn out when tyrosine kinase p60^src was run?
A: p60^src (molar ratio=1.0)
